Usually Kd stands for the free concentration of one partner at which half of the binding sites on the other are occupied at equilibrium, for simple one-to-one binding. Higher therefore signals lower affinity.

We go through three molecules from publication PMC2475631.

Residue numbers refer to the chain shown, from its start.

What all share (test): EMSA
A general note: Mobility shift assays separate free from complexed probe on a gel.

One series deals with T1, Myogenin (Rattus norvegicus, UniProt P20428 1-287).
T1 sequence: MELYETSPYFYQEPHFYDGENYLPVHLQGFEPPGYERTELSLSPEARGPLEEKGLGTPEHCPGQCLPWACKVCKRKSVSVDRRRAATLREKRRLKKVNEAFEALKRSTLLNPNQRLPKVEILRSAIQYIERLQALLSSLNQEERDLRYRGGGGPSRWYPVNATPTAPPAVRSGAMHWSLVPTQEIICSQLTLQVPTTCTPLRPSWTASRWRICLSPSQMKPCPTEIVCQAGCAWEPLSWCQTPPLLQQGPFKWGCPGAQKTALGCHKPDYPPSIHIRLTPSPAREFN

For series [1], the target named is T2, MyoD;E47 (Mus musculus;Mus musculus, UniProt P10085;P15806-2 1-318;1-648, |).
For a further series, the target named is T3, MRF4;E47 (Rattus norvegicus;Mus musculus, UniProt P19335;P15806-2 1-242;1-648, |).
T3 sequence 1: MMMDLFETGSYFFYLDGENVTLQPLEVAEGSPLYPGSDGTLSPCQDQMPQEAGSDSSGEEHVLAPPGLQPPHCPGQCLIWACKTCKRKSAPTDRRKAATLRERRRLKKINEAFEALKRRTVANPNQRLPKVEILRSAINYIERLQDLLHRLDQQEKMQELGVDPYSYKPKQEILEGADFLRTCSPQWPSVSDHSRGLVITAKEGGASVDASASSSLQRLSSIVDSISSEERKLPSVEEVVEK
T3 sequence 2: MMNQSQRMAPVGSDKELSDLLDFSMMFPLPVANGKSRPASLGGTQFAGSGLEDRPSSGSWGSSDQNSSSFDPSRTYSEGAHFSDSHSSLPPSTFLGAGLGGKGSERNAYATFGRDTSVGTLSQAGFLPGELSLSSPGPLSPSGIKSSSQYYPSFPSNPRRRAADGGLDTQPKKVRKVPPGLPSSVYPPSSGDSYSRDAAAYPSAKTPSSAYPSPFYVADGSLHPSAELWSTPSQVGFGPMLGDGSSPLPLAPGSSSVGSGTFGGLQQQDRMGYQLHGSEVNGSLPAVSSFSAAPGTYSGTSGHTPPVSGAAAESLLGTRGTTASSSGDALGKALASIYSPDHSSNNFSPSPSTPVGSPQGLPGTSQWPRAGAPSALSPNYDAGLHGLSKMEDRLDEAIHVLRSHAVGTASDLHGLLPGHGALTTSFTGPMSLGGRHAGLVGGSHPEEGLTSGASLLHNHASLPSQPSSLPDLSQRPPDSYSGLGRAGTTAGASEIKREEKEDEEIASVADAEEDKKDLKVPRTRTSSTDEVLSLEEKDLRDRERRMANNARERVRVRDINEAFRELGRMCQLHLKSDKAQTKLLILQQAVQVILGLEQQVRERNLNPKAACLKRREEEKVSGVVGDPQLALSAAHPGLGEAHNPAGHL

The target of another series is MyoD (Mus musculus, UniProt P10085 1-318).
The target in series [2] is T4, Myogenin;E47 (Rattus norvegicus;Mus musculus, UniProt P20428;P15806-2 1-287;1-648, |).
T4 sequence 1: T1 sequence
T4 sequence 2: T3 sequence 2

In another series the target is T5, MRF4 (Rattus norvegicus, UniProt P19335 1-242).
T5 sequence: T3 sequence 1

Series [3] deals with T2, MyoD;E47. The source holds these as a separate data set.
Series [4] concerns the target T4, Myogenin;E47. This is another data set of the same source.
In another series the target is T6, mut-Myogenin (Rattus norvegicus, UniProt P20428 1-287, R84K;K91R).
T6 sequence: T1 sequence with R84K, K91R

The next series concerns the target T7, Myogenin/MyoDb chimera (Rattus norvegicus; Mus musculus basic …, UniProt P20428 1-73+P10085:102-121+94-287, internal_change).
T7 sequence: T1 sequence with S77T, V78T, S79N, V80A, R84K, L88M, K91R

A further series deals with MyoD/Myogeninb chimera (Mus musculus; Rattus norvegicus basic …, UniProt P10085 1-101+P20428:74-93+122-318, internal_change).

B1: E-box DNA (dsDNA)
DNA 1: TCGATCCCCCAACACCTGCTGCCTGA
DNA 2: TCAGGCAGCAGGTGTTGGGGGACGA
As to B1, the Kd with Myogenin is 25.4 ± 11 nM; with MyoD;E47 [1], 1.7 ± 0.6 nM; with MRF4;E47 it was 0.2 ± 0.1 nM; with MyoD, 91.8 ± 1.6 nM; with Myogenin;E47 [2] it was 0.2 ± 0.1 nM; in the series with MRF4 it was 21.3 ± 11 nM.

B2: G'2 sMtCK DNA (structured_DNA)
DNA: CTGAGGAGGGGCTGGAGGGACCAC
With B2, in the series with MRF4, the binding result was “binds”. Further, the binding signal worked out at 15 fold weaker than E-box in the series with MyoD;E47 [3] and 128 fold weaker than E-box with Myogenin;E47 [4].

B3: G'2 integrin DNA (structured_DNA)
DNA: CATGGGGGCGGGAAGGGGCGGGGTCT
In the case of B3, the binding result with mut-Myogenin is recorded as “binds”. The Kd with Myogenin came to 30 ± 8 nM; in the series with MyoD;E47 [1], 11.2 ± 4.3 nM; in the series with MRF4;E47, 19.5 ± 2.7 nM; in the series with MyoD it was 4.4 ± 2.5 nM; with Myogenin/MyoDb chimera it was 7.1 ± 1.9 nM; in the series with MyoD/Myogeninb chimera, 6 ± 3.1 nM. For the same molecule, the Kd in the series with Myogenin;E47 [2] came out at 8.5 ± 2 nM; in the series with MRF4, 5.3 ± 1.3 nM.
